Measured values reported in patent US8889419 (INDIANA UNIVERSITY RESEARCH AND TECHNOLOGY, dated 2014).
One block for each binder: values may come before it.

Legend:
[1] = biological target: T1, integrin VLA-4 on HL60 cells (UniProt P13612 34-1032; P05556 21-798); experiment: adhesion of HL60 cells (VLA-4 positive) to fragment-coated plates
T1 construct: whole, on cells; HL60 cells express VLA-4 but not VLA-5 by flow cytometry; also called CD49d

[2] = biological target: T1, integrin VLA-4 on HL60 cells; experiment: adhesion of HL60 cells to fragment-coated plates

T1 sequence (P13612 34-1032, chain 1 of 2): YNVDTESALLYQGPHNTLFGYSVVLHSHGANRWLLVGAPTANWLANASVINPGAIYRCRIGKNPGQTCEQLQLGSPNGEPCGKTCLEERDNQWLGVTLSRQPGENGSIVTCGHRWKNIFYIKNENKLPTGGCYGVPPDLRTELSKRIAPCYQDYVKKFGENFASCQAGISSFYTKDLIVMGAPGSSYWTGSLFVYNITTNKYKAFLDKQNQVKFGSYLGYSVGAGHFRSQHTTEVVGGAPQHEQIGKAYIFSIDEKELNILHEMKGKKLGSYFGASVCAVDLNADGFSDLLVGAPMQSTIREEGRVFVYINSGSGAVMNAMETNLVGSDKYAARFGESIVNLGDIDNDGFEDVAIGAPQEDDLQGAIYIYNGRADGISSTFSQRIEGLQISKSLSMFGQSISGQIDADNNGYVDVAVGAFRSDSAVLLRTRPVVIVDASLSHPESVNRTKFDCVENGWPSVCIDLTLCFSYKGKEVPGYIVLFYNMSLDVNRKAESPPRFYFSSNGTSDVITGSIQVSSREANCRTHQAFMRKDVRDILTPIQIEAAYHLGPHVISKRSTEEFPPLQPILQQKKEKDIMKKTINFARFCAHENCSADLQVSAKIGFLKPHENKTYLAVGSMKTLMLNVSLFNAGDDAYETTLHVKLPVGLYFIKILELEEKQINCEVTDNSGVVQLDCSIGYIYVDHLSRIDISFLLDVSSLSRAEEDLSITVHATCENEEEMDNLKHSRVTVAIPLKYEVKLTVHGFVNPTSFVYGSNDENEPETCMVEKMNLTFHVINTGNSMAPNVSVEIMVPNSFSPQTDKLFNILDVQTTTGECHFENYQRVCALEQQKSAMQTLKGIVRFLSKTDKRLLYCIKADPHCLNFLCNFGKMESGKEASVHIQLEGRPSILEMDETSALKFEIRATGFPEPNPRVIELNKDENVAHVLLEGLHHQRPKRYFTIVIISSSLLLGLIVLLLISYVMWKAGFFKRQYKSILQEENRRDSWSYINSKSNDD
T1 sequence (P05556 21-798, chain 2 of 2): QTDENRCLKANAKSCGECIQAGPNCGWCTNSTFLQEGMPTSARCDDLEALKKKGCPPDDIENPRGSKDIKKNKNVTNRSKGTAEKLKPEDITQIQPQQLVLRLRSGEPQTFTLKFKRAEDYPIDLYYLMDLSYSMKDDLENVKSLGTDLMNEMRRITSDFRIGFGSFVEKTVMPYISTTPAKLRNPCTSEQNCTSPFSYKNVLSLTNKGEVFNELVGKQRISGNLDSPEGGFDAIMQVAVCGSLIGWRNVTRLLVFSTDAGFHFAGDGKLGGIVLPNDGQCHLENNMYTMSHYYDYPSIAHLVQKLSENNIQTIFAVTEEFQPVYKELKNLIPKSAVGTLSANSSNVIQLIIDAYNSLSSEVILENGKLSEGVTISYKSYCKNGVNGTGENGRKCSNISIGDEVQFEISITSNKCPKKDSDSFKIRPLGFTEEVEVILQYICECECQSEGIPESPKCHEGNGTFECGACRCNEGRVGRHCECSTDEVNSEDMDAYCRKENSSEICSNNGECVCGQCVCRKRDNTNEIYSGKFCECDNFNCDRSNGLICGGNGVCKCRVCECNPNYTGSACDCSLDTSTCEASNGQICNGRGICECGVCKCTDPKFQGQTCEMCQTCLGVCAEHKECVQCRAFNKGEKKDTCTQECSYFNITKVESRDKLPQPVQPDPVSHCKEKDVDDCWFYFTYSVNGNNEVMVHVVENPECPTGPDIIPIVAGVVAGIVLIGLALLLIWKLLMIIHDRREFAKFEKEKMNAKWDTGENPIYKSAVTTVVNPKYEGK

- binding result [1]: binds
B1: recombinant fibronectin fragment H-296 (other, human, UniProt P02751 1812-2082, looked up)
chain: AIPAPTDLKFTQVTPTSLSAQWTPPNVQLTGYRVRVTPKEKTGPMKEINLAPDSSSVVVSGLMVATKYEVSVYALKDTLTSRPAQGVVTTLENVSPPRRARVTDATETTITISWRTKTETITGFQVDAVPANGQTPIQRTIKPDVRSYTITGLQPGTDYKIYLYTLNDNARSSPVVIDASTAIDAPSNLRFLATTPNSLLVSWQPPRARITGYIIKYEKPGSPPREVVPRPRPGVTEATITGLEPGTEYTIYVIALKNNQKSEPLIGRKKTDELPQLVTLPHPNLHGPEILDVPST
notes: Expressed in E. coli

- binding result [2]: no binding (tested: 2 µg/cm^2 coating)
B2: recombinant fibronectin fragment H-271 (other, human, UniProt P02751 1812-2082, looked up)
chain: AIPAPTDLKFTQVTPTSLSAQWTPPNVQLTGYRVRVTPKEKTGPMKEINLAPDSSSVVVSGLMVATKYEVSVYALKDTLTSRPAQGVVTTLENVSPPRRARVTDATETTITISWRTKTETITGFQVDAVPANGQTPIQRTIKPDVRSYTITGLQPGTDYKIYLYTLNDNARSSPVVIDASTAIDAPSNLRFLATTPNSLLVSWQPPRARITGYIIKYEKPGSPPREVVPRPRPGVTEATITGLEPGTEYTIYVIALKNNQKSEPLIGRKKT
